Measured values as given in US10584350B2, “Structurally modified COI1” (Board of Trustees of Michigan State University, priority 2016, dated 2020).

Legend:
COI1-JAZ9 interaction [1] = test: Y2H assays on plates for protein-protein interaction; type: cell-based, Arabidopsis; conditions: 10 μM COR, yeast
COI1-JAZ9 interaction [2] = test: Quantitative liquid Y2H assays (Beta-Glo, RLU); type: cell-based, Arabidopsis; conditions: liquid Y2H, yeast; for COR-dependent COI1-JAZ9 interaction: 1 μM COR; for JA-Ile-dependent COI1-JAZ9 interaction: 10 or 30 μM JA-Ile
Procedure: Yeast EGY48 strain carrying the p8Op:LacZ reporter plasmid was co-transformed with pGilda:COI1 (or COI1 mutants) and pB42AD:JAZ9 (or other JAZs) (Clontech). Colonies were selected on SD minimal plates (BD Biosciences) supplemented with the—uracil (U)/-tryptophan (W)/-histidine (H) amino acid drop out solution (Clontech). Yeast colonies were cultured overnight in liquid SD-UWH medium, harvested, washed twice in sterile water, and the absorbance (OD600) of the cultures was adjusted to 0.2 in liquid SD galactose/raffinose-UWH medium (BD Biosciences).
For liquid Y2H assays, cultures were supplemented with designated concentrations of JA-Ile (10 or 30 μM), COR (1 μM), or DMSO. After 16-h incubation with ligands, the liquid cultures were processed through the Beta-Glo Assay system (Promega) for detecting the β-galactosidase activity. […] Protein expression in yeast was detected using anti-LexA antibody (1:5,000; Upstate Biotechnology) for detection of COI1 expression from pGilda vector and anti-HA (1:5,000; Roche Life Science) antibody for detection of JAZ9 expression in pB42AD vector.

B1: R409A: COI1 alanine substitution mutant at R409 (protein)
chain: MEDPDIKRCKLSCVATVDDVIEQVMTYITDPKDRDSASLVCRRWFKIDSETREHVTMALCYTATPDRLSRRFPNLRSLKLKGKPRAAMFNLIPENWGGYVTPWVTEISNNLRQLKSVHFRRMIVSDLDLDRLAKARADDLETLKLDKCSGFTTDGLLSIVTHCRKIKTLLMEESSFSEKDGKWLHELAQHNTSLEVLNFYMTEFAKISPKDLETIARNCRSLVSVKVGDFEILELVGFFKAAANLEEFCGGSLNEDIGMPEKYMNLVFPRKLCRLGLSYMGPNEMPILFPFAAQIRKLDLLYALLETEDHCTLIQKCPNLEVLETRNVIGDRGLEVLAQYCKQLKRLRIERGADEQGMEDEEGLVSQRGLIALAQGCQELEYMAVYVSDITNESLESIGTYLKNLCDFALVLLDREERITDLPLDNGVRSLLIGCKKLRRFAFYLRQGGLTDLGLSYIGQYSPNVRWMLLGYVGESDEGLMEFSRGCPNLQKLEMRGCCFSERAIAAAVTKLPSLRYLWVQGYRASMTGQDLMQMARPYWNIELIPSRRVPEVNQQGEIREMEHPAHILAYYSLAGQRTDCPTTVRVLKEPI
COI1-JAZ9 interaction [1]
  COR-dependent COI1-JAZ9 interaction: reduced
COI1-JAZ9 interaction [2]
  COR-dependent COI1-JAZ9 interaction: reduced
  JA-Ile-dependent COI1-JAZ9 interaction: reduced

B2: A384P: COI1 substitution mutant at A384 (protein)
chain: MEDPDIKRCKLSCVATVDDVIEQVMTYITDPKDRDSASLVCRRWFKIDSETREHVTMALCYTATPDRLSRRFPNLRSLKLKGKPRAAMFNLIPENWGGYVTPWVTEISNNLRQLKSVHFRRMIVSDLDLDRLAKARADDLETLKLDKCSGFTTDGLLSIVTHCRKIKTLLMEESSFSEKDGKWLHELAQHNTSLEVLNFYMTEFAKISPKDLETIARNCRSLVSVKVGDFEILELVGFFKAAANLEEFCGGSLNEDIGMPEKYMNLVFPRKLCRLGLSYMGPNEMPILFPFAAQIRKLDLLYALLETEDHCTLIQKCPNLEVLETRNVIGDRGLEVLAQYCKQLKRLRIERGADEQGMEDEEGLVSQRGLIALAQGCQELEYMPVYVSDITNESLESIGTYLKNLCDFRLVLLDREERITDLPLDNGVRSLLIGCKKLRRFAFYLRQGGLTDLGLSYIGQYSPNVRWMLLGYVGESDEGLMEFSRGCPNLQKLEMRGCCFSERAIAAAVTKLPSLRYLWVQGYRASMTGQDLMQMARPYWNIELIPSRRVPEVNQQGEIREMEHPAHILAYYSLAGQRTDCPTTVRVLKEPI
COI1-JAZ9 interaction [2]
  COR-dependent COI1-JAZ9 interaction: completely disrupted
  JA-Ile-dependent COI1-JAZ9 interaction: completely disrupted

B3: A384T: COI1 substitution mutant at A384 (protein)
chain: MEDPDIKRCKLSCVATVDDVIEQVMTYITDPKDRDSASLVCRRWFKIDSETREHVTMALCYTATPDRLSRRFPNLRSLKLKGKPRAAMFNLIPENWGGYVTPWVTEISNNLRQLKSVHFRRMIVSDLDLDRLAKARADDLETLKLDKCSGFTTDGLLSIVTHCRKIKTLLMEESSFSEKDGKWLHELAQHNTSLEVLNFYMTEFAKISPKDLETIARNCRSLVSVKVGDFEILELVGFFKAAANLEEFCGGSLNEDIGMPEKYMNLVFPRKLCRLGLSYMGPNEMPILFPFAAQIRKLDLLYALLETEDHCTLIQKCPNLEVLETRNVIGDRGLEVLAQYCKQLKRLRIERGADEQGMEDEEGLVSQRGLIALAQGCQELEYMTVYVSDITNESLESIGTYLKNLCDFRLVLLDREERITDLPLDNGVRSLLIGCKKLRRFAFYLRQGGLTDLGLSYIGQYSPNVRWMLLGYVGESDEGLMEFSRGCPNLQKLEMRGCCFSERAIAAAVTKLPSLRYLWVQGYRASMTGQDLMQMARPYWNIELIPSRRVPEVNQQGEIREMEHPAHILAYYSLAGQRTDCPTTVRVLKEPI
COI1-JAZ9 interaction [2]
  COR-dependent COI1-JAZ9 interaction: completely disrupted
  JA-Ile-dependent COI1-JAZ9 interaction: completely disrupted
